In patent US7037492:

Molecular target: IL-1 receptors (on articular chondrocytes)
Test: cell-based or functional assay

human interleukin-1 receptor antagonist protein (IRAP) (from UniProt P18510 26-177) (ligand)
inhibition of gelatinase production by IL-1 treated chondrocytes, 5 U/ml IL-1, first culture's conditioned medium: 100%
inhibition of gelatinase production by IL-1 treated chondrocytes, 5 U/ml IL-1, second culture's conditioned medium: 41%
inhibition of gelatinase production by IL-1 treated chondrocytes, 10 U/ml IL-1, first culture's conditioned medium: 38%
inhibition of gelatinase production by IL-1 treated chondrocytes, 10 U/ml IL-1, second culture's conditioned medium: 18%
